According to patent US20120178694A1 (University of Pennsylvania, published 2012):
Bridge positions count the residues as written; N and C are the ends. Square brackets hold non-standard residues; d marks the D form. Trp(1-Me) = Cn1cc(C[C@H](N)C(=O)O)c2ccccc21; NMeI = CC[C@H](C)[C@H](NC)C(=O)O; Nle = CCCC[C@H](N)C(=O)O; Sar = CNCC(=O)O

B1: Ac-Ic[CV(1-MeW)QDW(N-MeG)AHRC](Nle)-NH2 (peptide)
peptide: Ac-ICV[Trp(1-Me)]QDW[Sar]AHRC[Nle]-NH2
modifications: disulfide 2-12
SMILES: CCCC[C@H](NC(=O)[C@@H]1CSSC[C@H](NC(=O)[C@@H](NC(C)=O)[C@@H](C)CC)C(=O)N[C@@H](C(C)C)C(=O)N[C@@H](Cc2cn(C)c3ccccc23)C(=O)N[C@@H](CCC(N)=O)C(=O)N[C@@H](CC(=O)O)C(=O)N[C@@H](Cc2c[nH]c3ccccc23)C(=O)N(C)CC(=O)N[C@@H](C)C(=O)N[C@@H](Cc2c[nH]cn2)C(=O)N[C@@H](CCCNC(=N)N)C(=O)N1)C(N)=O
B2: Ac-Ic[CV(1-MeW)QDW(N-MeG)AHRC]L-NH2 (peptide)
peptide: Ac-ICV[Trp(1-Me)]QDW[Sar]AHRCL-NH2
modifications: disulfide 2-12
SMILES: CC[C@H](C)[C@H](NC(C)=O)C(=O)N[C@H]1CSSC[C@@H](C(=O)N[C@@H](CC(C)C)C(N)=O)NC(=O)[C@H](CCCNC(=N)N)NC(=O)[C@H](Cc2c[nH]cn2)NC(=O)[C@H](C)NC(=O)CN(C)C(=O)[C@H](Cc2c[nH]c3ccccc23)NC(=O)[C@H](CC(=O)O)NC(=O)[C@H](CCC(N)=O)NC(=O)[C@H](Cc2cn(C)c3ccccc23)NC(=O)[C@H](C(C)C)NC1=O
B3: Ac-Ic[CV(1-MeW)QDW(N-MeG)AHRC](N-MeI)-NH2 (peptide)
peptide: Ac-ICV[Trp(1-Me)]QDW[Sar]AHRC[NMeI]-NH2
modifications: disulfide 2-12
SMILES: CC[C@H](C)[C@H](NC(C)=O)C(=O)N[C@H]1CSSC[C@@H](C(=O)N(C)[C@H](C(N)=O)[C@@H](C)CC)NC(=O)[C@H](CCCNC(=N)N)NC(=O)[C@H](Cc2c[nH]cn2)NC(=O)[C@H](C)NC(=O)CN(C)C(=O)[C@H](Cc2c[nH]c3ccccc23)NC(=O)[C@H](CC(=O)O)NC(=O)[C@H](CCC(N)=O)NC(=O)[C@H](Cc2cn(C)c3ccccc23)NC(=O)[C@H](C(C)C)NC1=O
notes: Sar^8, (NMe)Ile^13; also called peptide 21; analog 21
B4: Ac-Ile-c[Cys-Val-Trp(Me)-Gln-Asp-Trp-Sar-Ala-His-Arg-Cys]-Ile-NH2 (peptide)
peptide: Ac-ICV[Trp(1-Me)]QDW[Sar]AHRCI-NH2
modifications: disulfide 2-12
SMILES: CC[C@H](C)[C@H](NC(=O)[C@@H]1CSSC[C@H](NC(=O)[C@@H](NC(C)=O)[C@@H](C)CC)C(=O)N[C@@H](C(C)C)C(=O)N[C@@H](Cc2cn(C)c3ccccc23)C(=O)N[C@@H](CCC(N)=O)C(=O)N[C@@H](CC(=O)O)C(=O)N[C@@H](Cc2c[nH]c3ccccc23)C(=O)N(C)CC(=O)N[C@@H](C)C(=O)N[C@@H](Cc2c[nH]cn2)C(=O)N[C@@H](CCCNC(=N)N)C(=O)N1)C(N)=O
notes: Sar^8, Ile^13; also called peptide 17; Ac-Ic[CV(1-MeW)QDW(N-MeG)AHRC]I-NH2

Assays:
biotinylated C3b [1] = target: biotinylated C3b (UniProt P01024); assay: SPR on immobilised C3b; ratio relative to peptide 14
[2] = target: T1, C3 purified from fresh human plasma (human, UniProt P01024 23-1663); assay: cell-based or functional assay
[3] = target: T1, C3 purified from fresh human plasma; assay: cell-based or functional assay; remark: listed apart in the source
[4] = target: T1, C3 purified from fresh human plasma; assay: cell-based or functional assay; remark: listed apart in the source
biotinylated C3b [5] = target: biotinylated C3b (UniProt P01024); assay: SPR, Biacore 3000; biotinylated C3b on streptavidin chip, peptide injected; 1:1 fit
[6] = target: T1, C3 purified from fresh human plasma; assay: ITC with C3; relative to peptide 14
Experimental: (§1) ITC analysis. All ITC experiments were performed with the Microcal VP-ITC calorimeter (Microcal Inc., Northampton, Mass.), using protein concentrations of 1.8-5 μM C3 in the cell and peptide concentrations of 40-100 μM of individual compstatin analogs in the syringe. All titrations were performed in PBS (10 mM phosphate buffer with 150 mM NaCl, pH 7.4) at 25° C. using multiple peptide injections of 2-7 μL each. The raw isotherms were corrected for the heats of dilution by subtracting the isotherms representing peptide injections into the buffer. The resulting isotherms were fitted to a single site of sites models using Origin 7.0 software, and the model that produced the lowest χ² value was deemed to be appropriate for the respective data set. The Gibbs free energy was calculated as ΔG=ΔH−TΔS. Each experiment was repeated at least twice.
(§2) Characterization of binding thermodynamics.

[7] = target: T1, C3 purified from fresh human plasma; assay: ITC; peptide titrated into C3, PBS, 25 C
Experimental: as §1, §2

[8] = target: T1, C3 purified from fresh human plasma; assay: cell-based or functional assay; remark: listed apart in the source

T1 sequence (P01024 23-1663): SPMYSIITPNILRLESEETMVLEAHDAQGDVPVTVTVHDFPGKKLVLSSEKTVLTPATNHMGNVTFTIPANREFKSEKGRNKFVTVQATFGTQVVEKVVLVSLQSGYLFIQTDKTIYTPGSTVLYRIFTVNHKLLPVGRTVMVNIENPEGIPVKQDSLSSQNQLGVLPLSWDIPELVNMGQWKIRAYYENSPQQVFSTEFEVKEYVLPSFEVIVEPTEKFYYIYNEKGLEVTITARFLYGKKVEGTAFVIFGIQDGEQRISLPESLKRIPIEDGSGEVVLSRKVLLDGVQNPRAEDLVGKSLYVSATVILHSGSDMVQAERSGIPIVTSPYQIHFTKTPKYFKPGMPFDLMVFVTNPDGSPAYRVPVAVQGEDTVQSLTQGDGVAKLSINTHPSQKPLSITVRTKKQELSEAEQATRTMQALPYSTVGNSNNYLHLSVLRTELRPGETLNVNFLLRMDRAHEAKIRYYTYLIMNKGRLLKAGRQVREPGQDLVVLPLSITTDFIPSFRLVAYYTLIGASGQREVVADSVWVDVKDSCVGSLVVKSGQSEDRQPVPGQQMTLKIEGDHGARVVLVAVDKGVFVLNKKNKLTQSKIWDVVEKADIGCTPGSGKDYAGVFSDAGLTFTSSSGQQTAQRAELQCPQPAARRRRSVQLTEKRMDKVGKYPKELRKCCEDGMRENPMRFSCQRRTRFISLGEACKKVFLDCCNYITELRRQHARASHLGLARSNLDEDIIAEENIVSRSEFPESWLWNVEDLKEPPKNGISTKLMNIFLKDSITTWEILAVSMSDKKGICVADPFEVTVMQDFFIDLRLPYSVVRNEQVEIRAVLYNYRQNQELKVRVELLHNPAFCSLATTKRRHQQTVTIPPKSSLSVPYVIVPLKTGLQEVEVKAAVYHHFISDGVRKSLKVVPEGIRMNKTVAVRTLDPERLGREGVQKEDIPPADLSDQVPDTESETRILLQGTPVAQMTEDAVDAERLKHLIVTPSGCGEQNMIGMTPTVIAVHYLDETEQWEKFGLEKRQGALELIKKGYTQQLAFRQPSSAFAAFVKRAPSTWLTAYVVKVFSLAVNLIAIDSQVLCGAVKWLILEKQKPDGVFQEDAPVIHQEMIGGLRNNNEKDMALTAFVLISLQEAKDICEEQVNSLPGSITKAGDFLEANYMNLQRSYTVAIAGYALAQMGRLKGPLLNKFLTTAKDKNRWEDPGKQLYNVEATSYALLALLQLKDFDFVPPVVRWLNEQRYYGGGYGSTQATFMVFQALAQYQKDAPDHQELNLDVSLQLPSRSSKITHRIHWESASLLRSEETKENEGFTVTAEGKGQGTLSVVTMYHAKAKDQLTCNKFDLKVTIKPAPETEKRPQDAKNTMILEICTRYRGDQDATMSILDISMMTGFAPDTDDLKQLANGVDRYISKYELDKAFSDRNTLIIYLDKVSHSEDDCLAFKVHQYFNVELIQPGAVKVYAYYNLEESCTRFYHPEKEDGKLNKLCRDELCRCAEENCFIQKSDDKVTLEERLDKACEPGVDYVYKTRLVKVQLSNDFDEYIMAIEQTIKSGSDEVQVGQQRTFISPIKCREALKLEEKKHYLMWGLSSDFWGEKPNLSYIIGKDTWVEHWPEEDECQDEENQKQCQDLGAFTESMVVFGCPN

Row | Binder | rKD SPR (biotinylated C3b [1]) | rka (biotinylated C3b [1]) | rkd (biotinylated C3b [1]) | Fold change in activity (IC50) relative to SEQ ID NO:4 [2] | rP, relative potency compared to peptide 14 [3] | IC50, inhibition of classical pathway complement activation, ELISA [4] | Kd (biotinylated C3b [5]) | koff (biotinylated C3b [5]) | kon (biotinylated C3b [5]) | -TΔΔS [6] | rKD ITC [6] | ΔΔG [6] | ΔΔH [6] | -TΔS [7] | ΔG [7] | ΔH [7] | IC50 (nM, CP), inhibition of classical pathway complement activation, ELISA, human serum [8] | IC50 fold change relative to peptide 17 [8]
1 | B1 | 2.7 fold | 1.5 fold | 1.7 fold | 1.9 fold | 1.9 fold | 109 nM | 4.4 nM | 0.0066 s⁻¹ | 1.5e+06 M⁻¹ s⁻¹ | – | – | – | – | – | – | – | – | –
2 | B2 | 2.6 fold | 1.3 fold | 1.9 fold | 1.91 fold | 1.9 fold | 108 nM | 4.6 nM | 0.006 s⁻¹ | 1.3e+06 M⁻¹ s⁻¹ | – | – | – | – | – | – | – | – | –
3 | B3 | 5.2 fold | 1.5 fold | 3.2 fold | 3.32 fold | 3.3 fold | 62 nM | 2.3 nM | 0.0035 s⁻¹ | 1.5e+06 M⁻¹ s⁻¹ | -1.3 kcal/mol | 3.3 fold | -0.7 kcal/mol | 0.5 kcal/mol | 5.7 kcal/mol | -11.4 kcal/mol | -17.1 kcal/mol | – | –
4 | B4 | 2.7 fold | 1.5 fold | 1.7 fold | 2.24 fold | 2.2 fold | 92 nM | 4.4 nM | 0.0066 s⁻¹ | 1.5e+06 M⁻¹ s⁻¹ | -4.1 kcal/mol | 2.4 fold | -0.5 kcal/mol | 3.5 kcal/mol | 2.9 kcal/mol | -11.2 kcal/mol | -14.1 kcal/mol | 92 nM | 1 fold
